Results taken from patent publication US20240018502.

T1: quenched fluorescence peptidic substrate containing SKGR/SL (P4-P2' of the PAR-2 activation cleavage site, Ser 33 to Leu 38)
T1 chain: SKGRSL

B1: Q38H/I41A/D60bV/F60eR/Y60gW/D96I/F97N/T98G/F99L/C122S/G151N/Q175L/Q192D (protein)
chain: VVGGTDADEGEWPWQVSLHALGHGHACGASLISPNWLVSAAHCYIDVRGRRWSDPTQWTAFLGLHDQSQRSAPGVQERRLKRIISHPFFNINGLDYDIALLELEKPAEYSSMVRPISLPDASHVFPAGKAIWVTGWGHTQYGGTNALILQKGEIRVINQTTCENLLPQLITPRMMCVGFLSGGVDSCDGDSGGPLSSVEADGRIFQAGVVSWGDGCAQRNKPGVYTRLPLFRDWIKENTGV
B2: I41R/F97T/Ins97aE/T98G/F99L/C122S/G151N/Q175L/Q192E (protein)
chain: VVGGTDADEGEWPWQVSLHALGQGHRCGASLISPNWLVSAAHCYIDDRGFRYSDPTQWTAFLGLHDQSQRSAPGVQERRLKRIISHPFFNDTEGLDYDIALLELEKPAEYSSMVRPISLPDASHVFPAGKAIWVTGWGHTQYGGTNALILQKGEIRVINQTTCENLLPQLITPRMMCVGFLSGGVDSCEGDSGGPLSSVEADGRIFQAGVVSWGDGCAQRNKPGVYTRLPLFRDWIKENTGV
B3: Q38H/I41S/D60bT/F60eS/Y60gW/D96L/F97D/ins97aG/T98N/F99L/C122S/G151H/Q175L/Q192E (protein)
chain: VVGGTDADEGEWPWQVSLHALGHGHSCGASLISPNWLVSAAHCYIDTRGSRWSDPTQWTAFLGLHDQSQRSAPGVQERRLKRIISHPFFNLDGNLDYDIALLELEKPAEYSSMVRPISLPDASHVFPAGKAIWVTGWGHTQYGGTHALILQKGEIRVINQTTCENLLPQLITPRMMCVGFLSGGVDSCEGDSGGPLSSVEADGRIFQAGVVSWGDGCAQRNKPGVYTRLPLFRDWIKENTGV
B4: Q38H/I41S/D60bT/F60eS/Y60gW/F97D/ins97aV/T98P/F99L/C122S/G151N/Q175L/Q192D (protein)
chain: VVGGTDADEGEWPWQVSLHALGHGHSCGASLISPNWLVSAAHCYIDTRGSRWSDPTQWTAFLGLHDQSQRSAPGVQERRLKRIISHPFFNDDVPLDYDIALLELEKPAEYSSMVRPISLPDASHVFPAGKAIWVTGWGHTQYGGTNALILQKGEIRVINQTTCENLLPQLITPRMMCVGFLSGGVDSCDGDSGGPLSSVEADGRIFQAGVVSWGDGCAQRNKPGVYTRLPLFRDWIKENTGV
B5: Q38H/I41A/D60bT/F60eK/Y60gW/F97T/ins97aE/T98G/F99L/C122S/G151H/Q175L/Q192D (protein)
chain: VVGGTDADEGEWPWQVSLHALGHGHACGASLISPNWLVSAAHCYIDTRGKRWSDPTQWTAFLGLHDQSQRSAPGVQERRLKRIISHPFFNDTEGLDYDIALLELEKPAEYSSMVRPISLPDASHVFPAGKAIWVTGWGHTQYGGTHALILQKGEIRVINQTTCENLLPQLITPRMMCVGFLSGGVDSCDGDSGGPLSSVEADGRIFQAGVVSWGDGCAQRNKPGVYTRLPLFRDWIKENTGV
B6: Q38H/I41A/D60bV/F60eR/Y60gW/F97T/ins97aE/T98G/F99L/C122S/G151N/Q175L/Q192D (protein)
chain: VVGGTDADEGEWPWQVSLHALGHGHACGASLISPNWLVSAAHCYIDVRGRRWSDPTQWTAFLGLHDQSQRSAPGVQERRLKRIISHPFFNDTEGLDYDIALLELEKPAEYSSMVRPISLPDASHVFPAGKAIWVTGWGHTQYGGTNALILQKGEIRVINQTTCENLLPQLITPRMMCVGFLSGGVDSCDGDSGGPLSSVEADGRIFQAGVVSWGDGCAQRNKPGVYTRLPLFRDWIKENTGV
B7: Q38H/I41A/D60bV/F60eR/Y60gW/D96I/F97Y/ins97aN/T98G/F99L/C122S/G151N/Q175L/Q192D (protein)
chain: VVGGTDADEGEWPWQVSLHALGHGHACGASLISPNWLVSAAHCYIDVRGRRWSDPTQWTAFLGLHDQSQRSAPGVQERRLKRIISHPFFNIYNGLDYDIALLELEKPAEYSSMVRPISLPDASHVFPAGKAIWVTGWGHTQYGGTNALILQKGEIRVINQTTCENLLPQLITPRMMCVGFLSGGVDSCDGDSGGPLSSVEADGRIFQAGVVSWGDGCAQRNKPGVYTRLPLFRDWIKENTGV
B8: Q38H/I41S/D60bT/F60eS/Y60gW/D96Y/F97E/ins97aV/T98G/F99L/C122S/G151H/Q175L/Q192D (protein)
chain: VVGGTDADEGEWPWQVSLHALGHGHSCGASLISPNWLVSAAHCYIDTRGSRWSDPTQWTAFLGLHDQSQRSAPGVQERRLKRIISHPFFNYEVGLDYDIALLELEKPAEYSSMVRPISLPDASHVFPAGKAIWVTGWGHTQYGGTHALILQKGEIRVINQTTCENLLPQLITPRMMCVGFLSGGVDSCDGDSGGPLSSVEADGRIFQAGVVSWGDGCAQRNKPGVYTRLPLFRDWIKENTGV
B9: Q38H/I41S/D60bT/F60eS/Y60gW/F97D/ins97aV/T98P/F99L/C122S/G151H/Q175L/Q192D (protein)
chain: VVGGTDADEGEWPWQVSLHALGHGHSCGASLISPNWLVSAAHCYIDTRGSRWSDPTQWTAFLGLHDQSQRSAPGVQERRLKRIISHPFFNDDVPLDYDIALLELEKPAEYSSMVRPISLPDASHVFPAGKAIWVTGWGHTQYGGTHALILQKGEIRVINQTTCENLLPQLITPRMMCVGFLSGGVDSCDGDSGGPLSSVEADGRIFQAGVVSWGDGCAQRNKPGVYTRLPLFRDWIKENTGV
B10: Q38H/I41A/D60bV/F60eR/Y60gW/D96P/F97W/ins97aN/T98G/F99L/C122S/G151N/Q175L/Q192E (protein)
chain: VVGGTDADEGEWPWQVSLHALGHGHACGASLISPNWLVSAAHCYIDVRGRRWSDPTQWTAFLGLHDQSQRSAPGVQERRLKRIISHPFFNPWNGLDYDIALLELEKPAEYSSMVRPISLPDASHVFPAGKAIWVTGWGHTQYGGTNALILQKGEIRVINQTTCENLLPQLITPRMMCVGFLSGGVDSCEGDSGGPLSSVEADGRIFQAGVVSWGDGCAQRNKPGVYTRLPLFRDWIKENTGV
B11: Q38H/I41S/D60bT/F60eS/Y60gW/F97D/ins97aV/T98P/F99L/C122S/G151H/Q175L/Q192E (protein)
chain: VVGGTDADEGEWPWQVSLHALGHGHSCGASLISPNWLVSAAHCYIDTRGSRWSDPTQWTAFLGLHDQSQRSAPGVQERRLKRIISHPFFNDDVPLDYDIALLELEKPAEYSSMVRPISLPDASHVFPAGKAIWVTGWGHTQYGGTHALILQKGEIRVINQTTCENLLPQLITPRMMCVGFLSGGVDSCEGDSGGPLSSVEADGRIFQAGVVSWGDGCAQRNKPGVYTRLPLFRDWIKENTGV
B12: Q38H/I41A/D60bV/F60eR/Y60gW/F97T/ins97aE/T98G/F99L/C122S/G151H/Q175L/Q192D (protein)
chain: VVGGTDADEGEWPWQVSLHALGHGHACGASLISPNWLVSAAHCYIDVRGRRWSDPTQWTAFLGLHDQSQRSAPGVQERRLKRIISHPFFNDTEGLDYDIALLELEKPAEYSSMVRPISLPDASHVFPAGKAIWVTGWGHTQYGGTHALILQKGEIRVINQTTCENLLPQLITPRMMCVGFLSGGVDSCDGDSGGPLSSVEADGRIFQAGVVSWGDGCAQRNKPGVYTRLPLFRDWIKENTGV
B13: Q38H/I41A/D60bT/F60eK/Y60gW/F97T/ins97aE/T98G/F99L/C122S/G151N/Q175L/Q192D (protein)
chain: VVGGTDADEGEWPWQVSLHALGHGHACGASLISPNWLVSAAHCYIDTRGKRWSDPTQWTAFLGLHDQSQRSAPGVQERRLKRIISHPFFNDTEGLDYDIALLELEKPAEYSSMVRPISLPDASHVFPAGKAIWVTGWGHTQYGGTNALILQKGEIRVINQTTCENLLPQLITPRMMCVGFLSGGVDSCDGDSGGPLSSVEADGRIFQAGVVSWGDGCAQRNKPGVYTRLPLFRDWIKENTGV
B14: Q38H/I41S/D60bT/F60eS/Y60gW/D96K/F97D/ins97aA/T98P/F99L/C122S/G151H/Q175L/Q192D (protein)
chain: VVGGTDADEGEWPWQVSLHALGHGHSCGASLISPNWLVSAAHCYIDTRGSRWSDPTQWTAFLGLHDQSQRSAPGVQERRLKRIISHPFFNKDAPLDYDIALLELEKPAEYSSMVRPISLPDASHVFPAGKAIWVTGWGHTQYGGTHALILQKGEIRVINQTTCENLLPQLITPRMMCVGFLSGGVDSCDGDSGGPLSSVEADGRIFQAGVVSWGDGCAQRNKPGVYTRLPLFRDWIKENTGV
B15: Wild-type MTSP-1 protease domain with C122S (protein)
chain: VVGGTDADEGEWPWQVSLHALGQGHICGASLISPNWLVSAAHCYIDDRGFRYSDPTQWTAFLGLHDQSQRSAPGVQERRLKRIISHPFFNDFTFDYDIALLELEKPAEYSSMVRPISLPDASHVFPAGKAIWVTGWGHTQYGGTGALILQKGEIRVINQTTCENLLPQQITPRMMCVGFLSGGVDSCQGDSGGPLSSVEADGRIFQAGVVSWGDGCAQRNKPGVYTRLPLFRDWIKENTGV

Key:
[1] = target: human complement protein C3
[2] = target: complement protein C3 of cynomolgus monkey plasma
[3] = target: T1, quenched fluorescence peptidic …

Row | Protein | ED50 80% human plasma (60 min, nM), C3 cleavage [1] | ED50 80% cynomolgus plasma (nM), C3 cleavage, C3 ELISA [2] | SKGR/SL kcat/Km [3] | ED50 of cleavage of human C3 [1]
1 | B1 | 24 nM | 58 nM | 3560 M⁻¹ s⁻¹ | 
2 | B2 | 835 nM | 2200 nM | < 100 M⁻¹ s⁻¹ | 
3 | B3 | 39 nM | 70 nM | 1300 M⁻¹ s⁻¹ | 
4 | B4 | 41 nM | 118 nM | 1730 M⁻¹ s⁻¹ | 
5 | B5 | 38 nM | 136 nM | 742 M⁻¹ s⁻¹ | 
6 | B6 | 52 nM | 101 nM | 925 M⁻¹ s⁻¹ | 
7 | B7 | 27 nM | 37 nM | 2320 M⁻¹ s⁻¹ | 
8 | B8 | 38 nM | 133 nM | 865 M⁻¹ s⁻¹ | 
9 | B9 | 50 nM | 152 nM | 1730 M⁻¹ s⁻¹ | 
10 | B10 | 47 nM | 73 nM | 1620 M⁻¹ s⁻¹ | 
11 | B11 | 50 nM | 76 nM | 959 M⁻¹ s⁻¹ | 
12 | B12 | 32 nM | 133 nM | 1360 M⁻¹ s⁻¹ | 
13 | B13 | 65 nM | 195 nM | 245 M⁻¹ s⁻¹ | 
14 | B14 | 34 nM | 85 nM | 4030 M⁻¹ s⁻¹ | 
15 | B15 | 3500 nM | 2800 nM | 200000 M⁻¹ s⁻¹ | compared to 11 nM for the wild-type protease domain of SEQ ID NO:4
